From patent US6153382

Legend:
[1] = target: HIV-1 Rev (Human immunodeficiency virus 1) (UniProt P04618); assay: competition; conditions: D1/2 vs labelled RRE; 17 nM rev
[2] = target: HIV-1 Rev (Human immunodeficiency virus 1) (UniProt P04618); assay: filter

Substance: R7 full-length RRE transcript (238 nt)
- IC50 [1]: 2 nM
- Kd ([2]; 50% RNA bound at 10 nM rev, 43 mM Tris pH 8.0, 50 mM KCl, 4 C): 3 nM
- Kd ([2]; Scatchard high-affinity site, 50 mM KCl): 2 nM
- Kd ([2]; Scatchard high-affinity site, 200 mM KCl): 4 nM
